Laboratory results as given in patent US20020199213A1 (Kyowa Kirin, published 2002).
Blank lines part the entries; values can stand above or below the molecule they belong to.

Columns and labels:
CD4:Fc (human) = CD4:Fc (human) (UniProt P01730); assay: SPR, BIAcore2000, CD4:Fc immobilized by amine coupling, MAb flowed
[1] = biological target: T1, Human CD152 Mu-Ig fusion (Ancel # 501-820) (human, UniProt P16410 36-161); assay: ELISA of hybridoma supernatant on coated human CD152 mu-Ig fusion (assay taken from paragraph 247; the table does not explain OD)
T1 construct: Bought reagent; coated on ELISA plates at 0.2 ug/ml for hybridoma screening; also called CTLA-4; not shown: murine Ig part of the bought fusion, not described
T1 sequence (looked up): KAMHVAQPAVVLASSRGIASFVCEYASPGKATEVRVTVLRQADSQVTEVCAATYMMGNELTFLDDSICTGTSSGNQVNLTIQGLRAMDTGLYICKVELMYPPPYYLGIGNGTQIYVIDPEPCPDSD

Ka (CD4:Fc (human)): 3.1e+10 M⁻¹ | koff (CD4:Fc (human)): 7.1e-06 s⁻¹ | kon (CD4:Fc (human)): 220000 M⁻¹ s⁻¹
Molecule: murine anti-CD4 MAb, Leu3a (Pharmingen) (antibody)

OD [1]: 1.39 OD
B1: 1H5 (antibody, V domains shown)
VH: QLQLQESGPGLVKPSETLSLTCTVSGGSISNSNYYWGWIRQPPGKELEWIGSIYYTGNTYYNPSLKSRVTVSVDTSRNQFSLNLNSVIAADTAVYSCARHGFTISWSLDVWGQGTTVTVSS
VL: AIQLTQSPSSLSASVGDRVTITCRASQGISSALAWYQQKPGKAPKLLIYDASSLESGVPSRFSGSGSGTDFTLTISSLQPEDFATYYCQQFNSYLLTFGGGTKVEIK

OD [1]: 1.3 OD
B2: 9C4 (antibody, V domains shown)
VH: QVQLVESGGGVVEPGRSLRLSCAASGFTFSSYGMHWVRQAPGKGLEWVAVIWYKSSEKDYADSAKGRFTISRDNSKNTLYLQMNSLRAEDTAVYYCARAGLLGYFDYWGQGTLVTVSS
VL: EIVLTQSPGTLSLSPGERATLSCRASQSLNSYLAWYQQKPGQAPRPLIYGVSSRATGIPDRFSGSGSGTDFTLTISRLEPEDFAVYYCQQYGIYPFTFGPGTKVDIK
